Data on ten molecules can be found in patent publication US20040253247A1 (Genentech, published 2004).

Bridges are numbered along the chain shown (N, C = ends). Where no end group is shown, it is not given here. code n = not defined here

The Ki is the dissociation constant of the complex between target and ligand, obtained from inhibition or displacement. Broadly, the IC50 is the point on the concentration scale where inhibition reaches its midpoint. A higher IC50 goes with weaker potency. For orientation: Kd means a measure of binding affinity in units of concentration. Higher therefore signals a looser complex.

The target of assay [1] is T1, rat albumin (rat, UniProt P02770 25-608). Put plainly: phage ELISA, photograph of the plate. Background: An ELISA detects its analyte on a solid surface through an enzyme-linked reagent.
T1 sequence (P02770 25-608 limits assumed): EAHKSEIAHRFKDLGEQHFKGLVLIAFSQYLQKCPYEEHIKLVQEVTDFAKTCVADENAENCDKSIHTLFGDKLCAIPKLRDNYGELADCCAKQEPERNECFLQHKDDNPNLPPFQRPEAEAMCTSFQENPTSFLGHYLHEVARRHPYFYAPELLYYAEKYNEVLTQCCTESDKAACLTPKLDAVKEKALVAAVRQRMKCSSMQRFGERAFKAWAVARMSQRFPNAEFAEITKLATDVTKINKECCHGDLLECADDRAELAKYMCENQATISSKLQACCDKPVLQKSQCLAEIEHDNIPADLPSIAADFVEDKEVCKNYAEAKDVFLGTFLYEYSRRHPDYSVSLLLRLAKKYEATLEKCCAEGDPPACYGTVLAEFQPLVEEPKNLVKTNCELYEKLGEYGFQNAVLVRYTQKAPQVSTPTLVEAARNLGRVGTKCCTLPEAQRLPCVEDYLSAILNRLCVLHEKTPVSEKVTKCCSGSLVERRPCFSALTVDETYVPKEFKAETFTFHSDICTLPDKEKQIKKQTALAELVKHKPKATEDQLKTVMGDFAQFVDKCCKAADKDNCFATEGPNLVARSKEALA
For assay [2], the target named is T2, human albumin (human, UniProt P02768 25-609). Put plainly: phage ELISA, photograph of the plate.
The target in assay [3] is rhesus albumin (rhesus, UniProt Q28522 17-600). Description: phage ELISA, photograph of the plate.
Chain of rhesus albumin (Q28522 17-600 limits assumed): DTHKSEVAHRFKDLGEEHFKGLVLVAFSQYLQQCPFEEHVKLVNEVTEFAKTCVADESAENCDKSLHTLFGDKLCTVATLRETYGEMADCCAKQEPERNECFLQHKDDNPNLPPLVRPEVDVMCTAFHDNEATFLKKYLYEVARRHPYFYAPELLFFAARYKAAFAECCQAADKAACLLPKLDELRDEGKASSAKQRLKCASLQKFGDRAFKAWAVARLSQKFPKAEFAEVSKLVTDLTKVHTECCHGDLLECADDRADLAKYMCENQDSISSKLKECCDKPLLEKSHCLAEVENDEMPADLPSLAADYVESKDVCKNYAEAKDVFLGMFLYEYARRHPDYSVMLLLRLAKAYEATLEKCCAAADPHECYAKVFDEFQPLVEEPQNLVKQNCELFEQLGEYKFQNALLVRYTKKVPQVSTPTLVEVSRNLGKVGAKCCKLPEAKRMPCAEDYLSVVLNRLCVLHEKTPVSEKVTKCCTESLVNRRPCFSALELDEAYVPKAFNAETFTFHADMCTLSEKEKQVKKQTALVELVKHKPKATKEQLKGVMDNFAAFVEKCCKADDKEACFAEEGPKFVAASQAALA
Assay [4] deals with T3, mouse albumin (mouse, UniProt P07724 25-608). Put plainly: phage ELISA, photograph of the plate.
T3 sequence (P07724 25-608 limits assumed): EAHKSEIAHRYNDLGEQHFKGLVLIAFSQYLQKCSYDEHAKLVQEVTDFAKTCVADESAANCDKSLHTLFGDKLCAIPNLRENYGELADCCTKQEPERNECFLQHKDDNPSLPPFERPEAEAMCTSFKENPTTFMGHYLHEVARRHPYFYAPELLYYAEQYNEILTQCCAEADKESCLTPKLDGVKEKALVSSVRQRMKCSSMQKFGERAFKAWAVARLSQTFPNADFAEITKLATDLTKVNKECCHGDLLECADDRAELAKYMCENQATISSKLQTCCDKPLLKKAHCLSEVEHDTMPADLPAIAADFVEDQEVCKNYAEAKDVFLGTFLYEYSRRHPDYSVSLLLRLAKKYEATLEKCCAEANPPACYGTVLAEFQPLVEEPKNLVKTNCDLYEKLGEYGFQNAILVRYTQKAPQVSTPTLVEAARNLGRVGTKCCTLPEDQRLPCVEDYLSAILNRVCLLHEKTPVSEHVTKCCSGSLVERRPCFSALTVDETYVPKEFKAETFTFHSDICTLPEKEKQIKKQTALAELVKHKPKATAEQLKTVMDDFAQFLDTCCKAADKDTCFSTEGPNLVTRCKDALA
Assay [5] concerns the target T4, ovalbumin (UniProt P01012 2-386).
T4 sequence (looked up): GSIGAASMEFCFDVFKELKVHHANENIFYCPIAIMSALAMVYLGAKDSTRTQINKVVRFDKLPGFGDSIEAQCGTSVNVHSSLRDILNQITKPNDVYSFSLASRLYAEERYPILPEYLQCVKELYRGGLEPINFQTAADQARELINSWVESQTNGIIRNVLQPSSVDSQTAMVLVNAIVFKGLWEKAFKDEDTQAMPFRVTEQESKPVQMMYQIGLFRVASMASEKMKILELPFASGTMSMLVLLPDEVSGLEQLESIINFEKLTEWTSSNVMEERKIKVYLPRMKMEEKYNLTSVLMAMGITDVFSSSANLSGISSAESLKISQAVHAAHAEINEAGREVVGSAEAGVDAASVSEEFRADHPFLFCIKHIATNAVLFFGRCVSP
Put plainly: phage ELISA, photograph of the plate.

Assay [6] has as its target T5, IgG-Fc (UniProt P01857-1 108-330 = IgG part, limits assumed).
T5 construct: domain: IgG-Fc; also called biotinylated-IgG-Fc; biotin-IgG-Fc
Description: competition ELISA against immobilized Protein A Z-domain for biotinylated IgG-Fc; IC50 extrapolated to zero IgG-Fc. As to the method:
Competition ELISAs were performed in a manner similar to the method described in H. B. Lowman, et al., supra. […] Plates were then washed and developed as described using avidin/HRP conjugate. Inhibition curves were then computed for each concentration of biotin-IgG-Fc, and then the curve of half-maximal inhibition, “IC₅₀”, was extrapolated to zero biotin-IgG-Fc concentration in order to obtain a Kᵢ.

Assay [7] has as its target T5, IgG-Fc. Description: synthetic peptide; competition assay not given.
Assay [8] concerns the target T2, human albumin. Description: phage ELISA. As to the method: Phage ELISA—Phage clones (˜10¹¹ phage) were added to plates coated with rat, rabbit or human albumin. The microtiter plate was washed with wash buffer and bound phage were detected with HRP/Anti-M13 Conjugate. The amount of HRP bound was measured using ABTS/H₂O₂ substrate and monitoring the change at 405 nm.

Assay [9] deals with bovine albumin (bovine, UniProt P02769 25-607). Description: phage ELISA, photograph of the plate.
Chain of bovine albumin (P02769 25-607 limits assumed): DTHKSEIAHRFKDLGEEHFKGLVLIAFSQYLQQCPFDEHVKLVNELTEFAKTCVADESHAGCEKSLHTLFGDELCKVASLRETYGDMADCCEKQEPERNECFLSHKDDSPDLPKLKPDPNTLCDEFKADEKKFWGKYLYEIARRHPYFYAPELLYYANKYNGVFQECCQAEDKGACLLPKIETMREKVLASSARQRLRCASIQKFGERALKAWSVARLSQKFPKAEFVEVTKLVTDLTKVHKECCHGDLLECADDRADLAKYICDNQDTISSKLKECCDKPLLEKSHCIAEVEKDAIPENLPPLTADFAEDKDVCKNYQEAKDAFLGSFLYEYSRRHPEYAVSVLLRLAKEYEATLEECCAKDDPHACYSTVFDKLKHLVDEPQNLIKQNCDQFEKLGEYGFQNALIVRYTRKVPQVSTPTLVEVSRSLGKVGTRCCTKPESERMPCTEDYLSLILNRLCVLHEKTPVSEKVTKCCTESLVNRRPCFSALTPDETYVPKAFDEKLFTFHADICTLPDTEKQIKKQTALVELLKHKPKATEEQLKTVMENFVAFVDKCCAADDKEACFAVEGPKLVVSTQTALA
In assay [10] the target is T5, IgG-Fc. Description: synthetic peptide; method of the Kd not named.
For assay [11], the target named is T1, rat albumin. Description: SA08b competition binding assay with a rat albumin coat. As to the method: (§1) Plates were blocked using Blocker Casein (Pierce Chemical, Rockford, Ill.) for 1 hr, at 25° C. […] The amount of HRP bound was measured using ABTS/H₂O₂ substrate and monitoring the change at 405 nm.
The target of assay [12] is T3, mouse albumin. Description: SA08b competition binding assay with a mouse albumin coat. How it is done:
as §1

Assay [13] has as its target T6, rabbit albumin (rabbit, UniProt P49065 25-608). Description: SA08b competition binding assay with a rabbit albumin coat. How it is done:
as §1

The target of assay [14] is T1, rat albumin. Put plainly: SA08b binding assay: competition with biotinylated SA08b for immobilized albumin. As to the method:
as §1

Assay [15] deals with T6, rabbit albumin. Described as above. As to the method:
as §1

The target of assay [16] is T3, mouse albumin. The description is as above. As to the method: as §1
Assay [17] deals with T6, rabbit albumin. Put plainly: phage ELISA, photograph of the plate.
Assay [18] addresses T7, albumin (species not stated, D3H44 fusion assays).
T7 construct: also called immobilized albumin
Put plainly: SA08b competition binding assay (competitor: biotinylated SA08b), albumin species not given. How it is done:
as §1

T6 sequence (P49065 25-608 limits assumed): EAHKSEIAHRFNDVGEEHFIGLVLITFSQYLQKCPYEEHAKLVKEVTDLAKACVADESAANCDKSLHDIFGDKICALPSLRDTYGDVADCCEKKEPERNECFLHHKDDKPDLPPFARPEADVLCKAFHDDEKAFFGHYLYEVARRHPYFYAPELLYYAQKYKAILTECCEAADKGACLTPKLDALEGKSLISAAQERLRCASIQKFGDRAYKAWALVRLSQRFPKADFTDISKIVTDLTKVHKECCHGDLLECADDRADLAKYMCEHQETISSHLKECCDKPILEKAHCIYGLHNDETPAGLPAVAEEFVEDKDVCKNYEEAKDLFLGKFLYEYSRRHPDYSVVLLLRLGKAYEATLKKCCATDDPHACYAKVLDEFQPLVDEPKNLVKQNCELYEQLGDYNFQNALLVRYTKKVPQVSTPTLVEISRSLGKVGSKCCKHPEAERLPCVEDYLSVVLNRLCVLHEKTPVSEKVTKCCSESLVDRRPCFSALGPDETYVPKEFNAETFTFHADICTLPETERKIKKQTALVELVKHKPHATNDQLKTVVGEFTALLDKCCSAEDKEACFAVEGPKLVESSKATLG
T7 sequence (P49065 25-608): as the sequence (P49065 25-608 limits assumed) above

As to MELWCDSTLMAYDLCGDFNM (phage clone, Library BA) [BA-B39], the binding result in assay [1], in assay [2], in assay [3], in assay [4] and in assay [5] was “no binding” throughout.

B1: Fc-II peptide KEASCSYWLGELVWCVAGVE (peptide)
peptide: H-KEASCSYWLGELVWCVAGVE-NH2
modifications: disulfide 5-15 (inferred)
notes: Synthetic peptide; disulfide-constrained library origin
Take B1: in assay [6], the Ki was 5 µM.
Consider H-WEADCAWHLGELVWCTPMEF-NH2 (disulfide 5-15 (inferred), Synthetic peptide) [peptide WEADCAWHLGELVWCTPMEF], for which the IC50 in [7] was determined as 0.03 µM.
GEDWCDSTLLAFDLCGEGAR (phage clone, Library BA) [BA-B44]: the binding result in assay [8], in [1], in assay [3], in assay [4], in assay [9] and in assay [5] was “no binding” each time.
As to GENWCDWVLLAYDLCGEDNT (phage clone, Library BA) [BA-B37], the binding result in [1], in assay [2], in [3], in assay [4] and in assay [5] was “no binding” each time.

B2: Fc-I peptide ETQRCTWHMGELVWCEREHN (peptide)
peptide: H-ETQRCTWHMGELVWCEREHN-NH2
modifications: disulfide 5-15 (inferred)
notes: as for B1
Turning to B2, the inhibition constant Ki in assay [6] was 5 µM.
In [10], H-DLADCSWHMGELVWCSRVEG-NH2 (disulfide 5-15 (inferred), Synthetic peptide) [peptide DLADCSWHMGELVWCSRVEG] came in with a Kd of 0.05 µM.

B3: SA06 (peptide)
peptide: QRLMEDICLPRWGCLWEDDF-{code n}
modifications: disulfide 8-14 (inferred); not fully specified; reading uncertain
notes: synthesized peptide; also called Peptide SA06
Consider B3, for which the IC50 was found to be 0.061 µM in [11]; 0.008 µM in assay [12]; 0.174 µM in assay [13]; 0.068 µM in [14]; 0.128 µM in assay [15]; 0.008 µM in assay [16].
EVRSFCTDWPAHYSCTSLQG (phage clone, Library HA) [HA-H74]: the binding result in assay [1], in [17], in assay [4] and in assay [5] was “no binding” in each case.

B4: SA08 (peptide)
peptide: Ac-QGLIGDICLPRWGCLWGDSVK-{code n}
modifications: disulfide 8-14 (inferred); reading uncertain; also: printed as Gln-Gly-Leu-Ile-Gly-Asp-Ile-Cys-Leu-Pro-Arg-Trp-Gly-Cys-Leu-Trp-Gly-Asp-Ser-Val-Lys
notes: synthesized peptide; not biotinylated form of SA08b; also called SA08 peptide
With B4, the IC50 worked out at 0.068 µM in assay [14], 0.063 µM in assay [15] and 0.01 µM in [16]. In assay [18], the “IC50 (read off the curve)” value is about 0.01 µM.
